Legend:
[1] = system: CD37-expressing Daudi cancer B-cell line; test: Antibody Dependent Cellular Cytotoxicity (ADCC) assay, 51Cr release, PBL effector cells; format: cell-based, human; settings: TRU-016 treated with CS over a range of 100 μM-800 μM final concentration
Protocol: TRU-016 produced as described in Example 8 is incubated with the CD37-expressing Daudi cancer B-cell line in conjunction with primary human peripheral blood lymphocytes (PBL's) effector cells to assess ADCC activity.
Daudi target cells (5×10̂6) are added to a 15 ml conical tube and then centrifuged at 250×g for 5 minutes at 20° C. and the supernatant removed. The cell pellet is resuspended by the addition of 0.3 mCi Chromium-51 (^51Cr, GE Healthcare, CJ51). The cells are incubated for 75 minutes at 37° C. with 5% CO2, allowing the cells to incorporate the radioactive isotope. The cells are then washed three times to remove any unincorporated ^51Cr. This is done by adding 10 mL of complete media—IMDM (Gibco) with 10% FBS (Gibco)—to the tube, centrifuging at 250×g for 5 minutes at 20° C. followed by removal of supernatant. The final resuspension is in 11.5 mL of complete media. TRU-016 is diluted in complete media, at concentrations that are able to generate maximal to background levels of cell lysis (500 ng/mL-0.005 ng/mL). These titrations are plated out, 50 μL/well, in a round bottom 96 well plate. The ^51Cr labeled target cells are added to the dose titrations of TRU-016 at 50 μL/well and the control wells (control media without TRU-016). PBL's are isolated from fresh heparinized whole blood by density gradient centrifugation using Lymphocyte Separation Media as per protocol (LSM, MP Biomedical, 50494/36427). […] The assay is incubated for 4.5-5 hours at 37° C., 5% CO2. The effector cells lyse the target cells relative to the TRU-016 concentration, releasing a proportional amount of ^51Cr into the assay supernatant. Following the incubation the plate is centrifuged at 250×g for 3 minutes at 20° C. A 25 μL volume of cell-free supernatant is removed from all wells to a scintillation plate (Perkin Elmer 6005185) and dried overnight. The amount of ^51Cr isotope in each well of the scintillation plate is measured using a Topcount plate reader (Perkin Elmer, C9904V0). The data are expressed as percent of specific release. Specific release is calculated as:
(Sample value−Spontaneous value)/(Maximum value−Spontaneous value)*100% • Spontaneous=amount of ^51Cr released from target cell only • Maximum release=amount of ^51Cr released from targets treated with detergent lysing agent • Background Control=amount of ^51Cr released from target cells+effector cells (No TRU-016)
A dose response is generated and fit to a 4-parameter logistic curve using SoftMax Pro software (Molecular Devices, ver 5.0.1). Titrations of TRU-016 are utilized to create dose response curves of test and reference material for comparison. The EC50 values for the treated articles are compared to the untreated control (no CS) to determine the percent increase in ADCC activity.

[2] = biological target: T1, CD37 cell surface receptor (Homo sapiens, UniProt P11049); test: Binding of TRU-016 to B and non-B lymphocytes of human PBMC, two-color flow cytometry
T1 construct: Human PBMCs are isolated over LSM density gradients; endogenous in cells; host or cells: human PBMC
T1 sequence (P11049 1-281): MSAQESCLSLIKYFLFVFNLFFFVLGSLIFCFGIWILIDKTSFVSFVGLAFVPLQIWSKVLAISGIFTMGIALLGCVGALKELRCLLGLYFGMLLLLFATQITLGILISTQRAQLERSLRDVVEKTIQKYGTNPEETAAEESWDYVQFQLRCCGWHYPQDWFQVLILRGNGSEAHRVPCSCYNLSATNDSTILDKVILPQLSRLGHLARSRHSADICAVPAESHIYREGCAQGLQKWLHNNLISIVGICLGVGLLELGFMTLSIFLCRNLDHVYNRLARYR
Protocol: Experiments may be performed to confirm that the binding specificity of the parent antibody to the CD37 cell surface receptor is preserved in TRU-016. Human PBMCs are isolated over LSM density gradients and incubated with unconjugated TRU-016 and PE-conjugated anti-human CD19. Cells are washed and incubated with 1:100 FITC GAH IgG (Fc specific) for 45 minutes on ice. Cells are washed and analyzed by two-color flow cytometry on a FACsCalibur instrument using Cell Quest software. Cells are gated for B lymphocytes or non-B lymphocytes by CD19 staining.

CD37 = test: Binding of TRU-016 to CD37 expressing Daudi cells; design: species or system human; settings: CS 25-800 μM in culture
Protocol: The cells are then incubated with a FITC-conjugated goat anti-human IgG Fc specific antibody (Caltag H 10501). This antibody will bind to the Fc region of the human IgG chain of TRU-016 bound to the cells. The antibody is diluted 1:50 in FACS buffer and 100 μL is added to each well. The plate is incubated at 4° C. in the dark for 45 minutes. Any unbound FITC-labeled antibody is removed by adding 100 μL of FACS buffer to each well, centrifuging at 250×g for 3 minutes at 15° C. followed by removal of supernatant. This is followed by a second wash with 200 μL/well FACS buffer. The cells are resuspended with 200 μL/well 2% paraformaldehyde and stored at 4° C. overnight. Each sample's bound fluorescence is measured on a BD FACSCalibur flow cytometry system and analyzed using Cell Quest Pro software (Becton Dickinson, ver 5.2). The GeoMean fluorescence intensity for each sample is plotted relative to the TRU-016 concentration. A dose response curve is generated and fit to a 4-parameter logistic (4-PL) curve using the SoftMax Pro software (Molecular Devices, ver 5.0.1). Titrations of TRU-016 are utilized to create a dose response curve of the untreated control and CS treated samples for comparison.

TRU-016: recombinant single chain protein (SMIP) that binds CD37; G28-1 binding domain, modified hinge, human IgG1 CH2 and CH3; SEQ ID NO: 2
ADCC activity relative to untreated TRU-016 [1]: significantly increased
TRU-016 concentration at saturation of FITC signal on the B lymphocyte (CD19 positive gate) ([2]; CD19 positive gate): approximately 1 μg/mL
mean fluorescence intensity (MFI) at saturation ([2]; CD19 positive gate): ~1000
staining of the non-B lymphocyte population ([2]; non-B lymphocyte gate): detectable, but very low

O[C@H]1[C@H](O)[C@@H](O)CN2CC[C@H](O)[C@H]12 [castanospermine]
dose response binding curves of TRU-016 to CD37 expressing cells, compared with untreated TRU-016 sample (CD37): did not alter

— patent US20100150948A1, “MATERIALS AND METHODS FOR IMPROVED IMMUNOGLYCOPROTEINS” (TRUBION PHARMACEUTICALS, INC., priority 2006, published 2010)
